Data published in patent US12709637B2, “Regulated synthetic gene activation systems” (TRUSTEES OF BOSTON UNIVERSITY, priority 2023, dated 2026).

B1: 3Z: transcriptional activator, SEQ ID NO: 303; tested with TIMs on N terminus (protein)
chain: MAEEFVTLKDVGMDFTLGDWEQLGLEQGDTFWDTALDNCQDLFLLDPPRPNLTSHPDGSEDLEPLAGGSPEATSMAEEFVTLKDVGMDFTLGDWEQLGLEQGDTFWDTALDNCQDLFLLDPPRPNLTSHPDGSEDLEPLAGGSPEATSMAEEFVTLKDVGMDFTLGDWEQLGLEQGDTFWDTALDNCQDLFLLDPPRPNLTSHPDGSEDLEPLAGGSPEATS
B2: NFZ: transcriptional activator, SEQ ID NO: 57, domains from NCOA3, FOXO3 and ZNF473; tested with TIMs on N terminus (protein, listed as Homo sapiens)
chain: EGQSDERALLDQLHTLLSNTDATGLEEIDRALGIPELVNQGQALEPKQGGGGSGHEKFPSDLDLDMFNGSLECDMESIIRSELMDADGLDFNFDSGGGGSGFVTLKDVGMDFTLGDWEQLGLEQGDTFWDTALDNCQDLFLLDPP

Columns and labels:
[1] = system: mCherry reporter in Primary T cells; assay: 4OHT inducible systems driving mCherry reporter in Primary T cells; assay type: cell-based
Excerpt: Primary T cells were co-transduced with synZiFTR 2.0 and a minimally expressed mCherry reporter.

[2] = system: mCherry reporter in Primary T cells; assay: GZV inducible systems driving mCherry reporter in Primary T cells; assay type: cell-based
Procedure: Primary T cells were co-transduced with synZiFTR 2.0 and a minimally expressed mCherry reporter. Upon addition of GZV, the synZiFTR construct activated mCherry expression, which was measured on a flow cytometer (see e.g., FIG. 10).

Molecule | activation potency of the transcriptional activator on fusing TIMs domains on the N terminus [1] | activation potency of the transcriptional activator on fusing TIMs domains on the N terminus [2]
B1 | enhanced activation potency | –
B2 | enhanced activation potency | enhanced activation potency
